The target of data set [1] is Cdc13 (CST subunit);Stn1;Ten1 (Candida glabrata;Candida glabrata;Candida glabrata) (UniProt Q6FM89). Briefly: competition. To be noted: labeled CgTELX1 7.5 nM, CST 10 nM; EMSA: 10 mM Tris-HCl pH 8.0, 2 mM MgCl2, 1 mM spermidine, 1 mM DTT, 10% glycerol, 22 C; UV crosslinking: 50 mM Hepes-NaOH pH 7.5, 10% glycerol, 30 mM ….
For another data set, the system named is Cdc13 (Candida glabrata). Briefly: competition. To be noted: labeled CgTELX1 7.5 nM, Cdc13 6 nM; EMSA: 10 mM Tris-HCl pH 8.0, 2 mM MgCl2, 1 mM spermidine, 1 mM DTT, 10% glycerol, 22 C; UV crosslinking: 50 mM Hepes-NaOH pH 7.5, 10% glycerol, 30 mM ….
In data set [2] the target is SUMO-CgCdc13-FLAG fusion protein (Candida glabrata Cdc13) (Candida glabrata). Briefly: co-IP; extract of E. coli co-expressing SUMO-Cdc13-FG and HIS6-SUMO-Stn1 (CS) on M2 (anti-FLAG) resin; Coomassie and Western (anti-FLAG, anti-HIS6).
For data set [3] the target is unchanged. In words: Coomassie staining intensities of the subunits in SDS-PAGE against BSA standards; purified CST complex (M2 fractions); intensities assumed proportional to molecular weights.
Data set [4] has the same target. Briefly: Western analysis of serial dilutions with anti-SUMO antibodies; serial three fold dilutions of the purified CST complex; SUMO tag present in both the Cdc13 and Stn1 fusions.
Data set [5] has the same target. In words: co-sedimentation; purified CST complex on a 15-30% glycerol gradient; fractions by Western with anti-SUMO (Cdc13, Stn1) and anti-GST (Ten1); 500 kDa fraction also in serial two fold dilutions with anti-SUMO.
Data set [6] concerns CaStn1N K98E/K170E;CaTen1 (Candida albicans;Candida albicans). Briefly: UV crosslinking. To be noted: single Iodo-dU; EMSA: 10 mM Tris-HCl pH 8.0, 2 mM MgCl2, 1 mM spermidine, 1 mM DTT, 10% glycerol, 22 C; UV crosslinking: 50 mM Hepes-NaOH pH 7.5, 10% glycerol, 30 mM ….
Data set [7] has as its system CaStn1N;CaTen1 (Candida albicans;Candida albicans). In words: UV crosslinking. As to conditions: reference; normalized to Ten1 adduct; single Iodo-dU; EMSA: 10 mM Tris-HCl pH 8.0, 2 mM MgCl2, 1 mM spermidine, 1 mM DTT, 10% glycerol, 22 C; UV crosslinking: 50 mM Hepes-NaOH pH 7.5, 10% glycerol, 30 mM ….

Values joined by “and” are separate entries in the source; they are usually repeats but may differ in a detail not shown here. Identical values can stand only once.

6 substances from article PMC3536697 can be followed below.

Regarding “TTAGGATCCATGAAAACTGAAGAAGGTAAACTGGTA [R1]”, the binding signal (fold more competitor than CgTELX1) (in data set [1]; with Cdc13 (Candida glabrata)) was above 200 each time.
On to “HIS6-SUMO-CgStn1 fusion protein (Candida glabrata Stn1) (natural protein)”, for which the stoichiometry N (Stn1 per Cdc13) is 2 to 3 in data set [2]; 2 and 3 and 2.5 in data set [3]; 2.5 in data set [4]; 2.5 in data set [5].
Take “CGGTGTAAGGATGCACTTGAAACTCGGTGTAAGGATGCACTTGAAACT [LeTELX2]”: the binding signal (fold more competitor than CgTELX1) (in data set [1]; in the data set on Cdc13 (Candida glabrata)) was above 200 each time.
Substance “SUMO-CgCdc13-FLAG fusion protein (Candida glabrata Cdc13) (natural protein)” showed a stoichiometry N in data set [5] of 2.
For the substance “TCTTTAGGGAGGTACTGATGTTCTTTAGGGAGGTACTGATGT [ClTELX2]”, the binding signal (fold more competitor than CgTELX1) (in data set [1]; with Cdc13 (Candida glabrata)) was 20 in each case.
Regarding C. albicans telomere IdU oligo, in data set [6], the binding signal (fold reduction vs WT) came to 3. This substance also came in with a binding signal (fraction of WT Stn1N crosslinking) in data set [7] of 1.
